From article PMC4784862, “DNA Sequence Determinants Controlling Affinity, Stability and Shape of DNA Complexes Bound by the Nucleoid Protein Fis”

Legend:
Settings in all cases: protein: recombinant; chain copies: 2; label: 5'-32P
[1] = target: T1, Fis WT (UniProt P0A6R3 1-98); test: EMSA; t1/2 44 min; EMSA: 20 mM Hepes pH 7.5, 0.15 M NaCl, 5% glycerol, 0.5 mg/ml BSA, 1 mM EDTA, 1 mM DTT, 0.1 nM 32P 27 bp probe, 50 ug/ml poly dI/dC; temperature not stated
[2] = target: T1, Fis WT; test: EMSA; t1/2 38 min; EMSA: 20 mM Hepes pH 7.5, 0.15 M NaCl, 5% glycerol, 0.5 mg/ml BSA, 1 mM EDTA, 1 mM DTT, 0.1 nM 32P 27 bp probe, 50 ug/ml poly dI/dC; temperature not stated
[3] = target: T1, Fis WT; test: EMSA; t1/2 36 min; EMSA: 20 mM Hepes pH 7.5, 0.15 M NaCl, 5% glycerol, 0.5 mg/ml BSA, 1 mM EDTA, 1 mM DTT, 0.1 nM 32P 27 bp probe, 50 ug/ml poly dI/dC; temperature not stated
[4] = target: T1, Fis WT; test: EMSA; t1/2 25 min; EMSA: 20 mM Hepes pH 7.5, 0.15 M NaCl, 5% glycerol, 0.5 mg/ml BSA, 1 mM EDTA, 1 mM DTT, 0.1 nM 32P 27 bp probe, 50 ug/ml poly dI/dC; temperature not stated
[5] = target: T1, Fis WT; test: EMSA; t1/2 30 min; EMSA: 20 mM Hepes pH 7.5, 0.15 M NaCl, 5% glycerol, 0.5 mg/ml BSA, 1 mM EDTA, 1 mM DTT, 0.1 nM 32P 27 bp probe, 50 ug/ml poly dI/dC; temperature not stated

T1 sequence (P0A6R3 whole entry): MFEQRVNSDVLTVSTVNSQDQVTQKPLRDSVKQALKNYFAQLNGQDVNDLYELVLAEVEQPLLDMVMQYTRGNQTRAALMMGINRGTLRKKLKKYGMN

B1: F1±10C (dsDNA)
DNA 1: AAACTTGTTTGAATTTTGAGCAAGTTT
DNA 2: AAACTTGCTCAAAATTCAAACAAGTTT
Q: For B1, which Kd [1] is on record?
A: Its Kd is 300 ± 100 pM.

B2: F1±10G (dsDNA)
DNA 1: AAAGTTGTTTGAATTTTGAGCAACTTT
DNA 2: AAAGTTGCTCAAAATTCAAACAACTTT
Q: Which Kd [2] does the source give for B2 here?
A: Its Kd is 500 ± 100 pM.

B3: F1±10A (dsDNA)
DNA 1: AAAATTGTTTGAATTTTGAGCAATTTT
DNA 2: AAAATTGCTCAAAATTCAAACAATTTT
Q: Which Kd [3] does the source give for B3 here?
A: The Kd was 500 ± 100 pM.

B4: F1±9G (dsDNA)
DNA 1: AAATGTGTTTGAATTTTGAGCACATTT
DNA 2: AAATGTGCTCAAAATTCAAACACATTT
Q: B4 was tested. Which Kd [4] did it give?
A: The Kd was 600 ± 200 pM.

B5: F1±9C (dsDNA)
DNA 1: AAATCTGTTTGAATTTTGAGCAGATTT
DNA 2: AAATCTGCTCAAAATTCAAACAGATTT
Q: How did the Kd [5] turn out when B5 was run?
A: The Kd was 300 ± 100 pM.
